The values below come from patent US6429297B1, “Modified avidin and streptavidin and methods of use thereof” (University of Rochester, priority 1995, dated 2002).

Where two headings read alike, the source gives them in different places.

Series [1] in a line: biodistribution and gamma camera imaging of ^131I-labelled modified SA and Avid in rabbits. As to conditions: rabbit; for kidney accumulation (biodistribution) / liver accumulation (biodistribution): 2 hours after injection; for planar gamma camera images, location of activity: images at 5, 30 and 120 minutes.
Experimental: (§1) SA and Avid, 0.5 mg, were radiolabeled with starting activities of ˜0.3 mCi ^131I and ˜0.1 mCi ^131I, respectively.
(§2) Biodistribution was determined in vivo. New Zealand White rabbits, ˜3 kg, (n=3 per experiment) were fasted for 12 hours prior to the experiment and anesthetized using an intramuscular injection of chlorpromazine (25 mg/kg) followed by intravenous sodium pentobarbital (15 mg/kg). An external jugular vein was dissected and catheterized using a 5 French straight catheter for injection and collection of whole blood. The animal was placed in a supine position under the gamma camera for imaging and was then injected with [75 μg] of the radiolabeled proteins prepared above. Whole blood samples (2-3 ml) were taken at intervals for 2 hours. Planar gamma camera images (30K count acquisition) were taken at 5, 30, 60 and 120 minutes. At two hours, animals were euthanized. Major organs were removed, weighed and representative samples taken for biodistribution analysis. Blood volume was estimated to be 6% of total body weight.
Series [2] in a line: blood clearance of ^131I-labelled modified SA and Avid in rabbits. As to conditions: rabbit, ^131I label, over 2 hours.
Experimental: (§3) The blood clearance kinetics of the compounds of the present invention can be assessed by in vivo assays. The modified Avid and SA compounds are detectably labeled, for example by radiolabeling, injected into animals, and blood clearance is then determined by biodistribution analysis of radiolabeled samples. For example, the compounds of the present invention can be radiolabeled with ^131I by the Pierce lodobead method (Pierce, Rodeford, Ill.) and separated from free iodine for example by ultrafiltration using CENTRICON-30 filters. Experimental animals, for example, rabbits weighing about 3 kilograms, are fasted, anesthetized, and an external jugular vein is dissected and catheterized for injection and collection of blood samples. A radiolabeled compound of the present invention is injected. Whole blood samples are taken at various time intervals for about two hours. By comparing the blood clearance of galactose-modified SA with native SA, and Avid-E, the skilled artisan can determine the extent of modification that results in optimal blood clearance.
as §1, §2
Series [3] can be described thus: DACB (biotin chelate) saturation / biotin binding assay. As for the experimental part:
The ability of the compounds of the present invention to bind to biotin can be assessed by in vitro assays known to one of ordinary skill in the art. For example, the compounds of the present invention are incubated with a molar excess of radiolabeled biotin under conditions sufficient for avidin-biotin or streptavidin-biotin binding. Biotin bound to the tested compound is separated from unbound biotin, for example by filtration. The bound biotin/modified Avid or SA ratio is determined by dividing the activity in the retentate by the specific activity of the radiolabeled biotin. The binding ratios for each modified Avid or SA compound are determined by dividing the bound moles of biotin by the moles of each compound.
In a preferred embodiment, the radiolabeled biotin is the biotin chelate deferoxamineacetylcysteinylbiotin (DACB) labeled with ^67Ga. DACB is known in the art and described for example by Rosebrough et al (1993) J. Pharm. Exp. Therap. 265:408 and in U.S. Pat. No. 5,326,778. DACB can be radiolabeled by direct addition of carrier free ^67Ga citrate (DuPont Merck Pharmaceutical Co., Billerica, Mass.). Samples of Avid, SA, modified Avid, and modified SA are incubated with a 20/1 molar excess of ^67Ga-DACB on CENTRICON-30 filters (Amicon, Beverly, Mass.) in 0.05M Tris/0.15M NaCl, pH 7.5. After two washings, the bound DACB/protein ratio is determined by dividing the bound activity in the retentate by the specific activity of ^67Ga-DACB. The binding ratio for each compound is determined by dividing the bound moles of DACB by the moles of streptavidin. […]
The purified DACB was then used to access the ability of the compounds prepared in accordance with Examples I-III to bind to biotin. […] After 2 washings, the bound DACB/protein ratio was determined by dividing the bound activity in the retentate by the specific activity of ^67Ga DACB (˜2×10^16 cpm/mole). The binding ratios for each sample were determined by dividing the bound moles of DACB by the moles of each protein. […]

Details of series [4]: species or system rabbits. The settings on record: rabbit, in vivo, 0.12 mg. As for the experimental part:
0.3 mg of SA-Tgal or SA-pTgal were-added to a microcentrifuge tube containing ˜0.5 mCi of I-131. Three Iodobeads were added and then mixed and incubated for 12 minutes at room temperature. Free I-131 was removed by ultrafiltration using centricon-30 filters. SA-Tgal and SA-pTgal concentration was determined spectrophotometrically. (E^1%280 nm=34)
0.12 mg of I-131 SA-Tgal and I-131 SA-pTgal were injected into rabbits for two hours. […] The liver accumulation for SA-Tgal was 90% compared to 16% for SA-pTgal.

For series [5] the following is noted: rabbit, in vivo.
Experimental: as §3, §1, §2
The conditions of series [6]: rabbit, in vivo. The source holds these as a separate data set.
Experimental: as §1, §2

As to “Avid-E/N: avidin both neutralized and deglycosylated”, in series [1], the “kidney accumulation (biodistribution)” value was “low levels in both the kidney and liver”; the “liver accumulation (biodistribution)” value was “low levels in both the kidney and liver”; the “planar gamma camera images, location of activity” value (shortened to “planar gamma camera images”) was “circulatory activity with a corresponding decrease in liver and kidney activity”. Moreover, the “blood clearance (in words)” value in series [2] was “substantially prolonged”.
As for “Avid-N: avidin neutralized by acetylation of its lysine amino acids”, in series [1], the “kidney accumulation (biodistribution)” value was “decreased considerably”; the “liver accumulation (biodistribution)” value is reported as “high liver accumulation”; the “planar gamma camera images” value was “dramatic reduction in kidney activity and a corresponding increase in liver activity”. Moreover, the “blood clearance (in words)” value in series [2] was “cleared slower than native Avid”. Further, the DACB saturation analysis entry in series [3] (sample made at NHS-Ac/Avid molar ratio 10) is reported as “approximated the binding of DACB to native avidin”. For the same substance, in series [3] (sample made at NHS-Ac/Avid molar ratio 25), the DACB saturation analysis result was “approximated the binding of DACB to native avidin”.
Regarding “SA-pTgal: acetylated Tgal modified streptavidin”, the “blood clearance (in words)” value in series [4] is “much slower than that of the SA-Tgal”.
Turning to avidin [reference compound], in series [1], the “kidney accumulation (biodistribution)” value is “accumulated mostly in the liver and kidney”; the “liver accumulation (biodistribution)” value is “accumulated mostly in the liver and kidney”; the “planar gamma camera images” value is “exclusively in the liver and kidneys”. Moreover, in series [2], the “blood clearance (in words)” value is given as “cleared quickly”.
For streptavidin [SA], the “percent of injected dose circulating in the blood at 2 hours” value in series [5] is recorded as “greater than 50%”. Moreover, the “DACB binding ratio (bound moles DACB per mole protein)” value in series [3] (20/1 molar excess ^67Ga DACB, pH 7.5) turned out to be 3.6. In addition, in series [6], the “planar gamma camera images” value is “vascular activity as indicated by systemic circulation and cardiac activity”.
